First the molecules themselves.
B1: TNNI2 (parent)
chain: DWRKNIEEKSGMEGRKKMFESES
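Also: lentivirally expressed fusions sorted by FACS into six bins by GFP to DsRed ratio, PSI derived from sequencing read proportions per bin multiplied by bin number.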

This data set covers variants of B1. Description: protein stability index of a GFP-peptide fusion (GPS, HEK-293T) (PSI 1-6); higher = more stable. The following applies: c terminus: native.
Regarding DWRKLIEEKSGMEGRKKMFESES [N5L], the protein stability index came to 2.57. In the case of DWRKEIEEKSGMEGRKKMFESES [N5E] it was 2.28; in that of DWRKQIEEKSGMEGRKKMFESES [N5Q], 2.72; in that of DWRKHIEEKSGMEGRKKMFESES [N5H], 2.07.

Consider DWRKCIEEKSGMEGRKKMFESES [N5C], for which the protein stability index is 2.7. In the case of DWRKWIEEKSGMEGRKKMFESES [N5W] it was 1.64; in that of DWRKNIEEKSGKEGRKKMFESES [M12K], 2.72. In the case of DWRKNIEEKSGNEGRKKMFESES [M12N] it was 2.89; in that of DWRKNIEEKSGEEGRKKMFESES [M12E], 2.47. In the case of DWRKNIEEKSGCEGRKKMFESES [M12C] it was 2.71. For DWRKNIEEKSGFEGRKKMFESES [M12F], the protein stability index worked out at 2.38. With DWRKNIEEKSGHEGRKKMFESES [M12H] the figure was 2.42. In the case of DWRKNIEEKSGIEGRKKMFESES [M12I] it was 3.01; in that of DWRKNIEEKSGDEGRKKMFESES [M12D], 2.52. With DWRKNIEEKSGPEGRKKMFESES [M12P] the figure was 1.96; with DWRKNIEEKSGLEGRKKMFESES [M12L], 2.13. Turning to DWRKNIEEKSQMEGRKKMFESES [G11Q], the protein stability index was found to be 1.18.

As to DWRKNIEEKSLMEGRKKMFESES [G11L], the protein stability index is 2.77.

With DWRKNIEEKSHMEGRKKMFESES [G11H], the protein stability index was 1.76. With DWRKNIEEKSDMEGRKKMFESES [G11D] the figure was 1.99; with DWRKNIEEKSVMEGRKKMFESES [G11V], 2; with DWRKNIEEKSTMEGRKKMFESES [G11T], 1.58. In the case of DWRKNIEEKSSMEGRKKMFESES [G11S] it was 2.6; in that of DWRKNIEEKSYMEGRKKMFESES [G11Y], 1.45. With DWRKNIEEKSAMEGRKKMFESES [G11A] the figure was 2.57. DWRKNIEEKSRMEGRKKMFESES [G11R]: the protein stability index came out at 2.35. In the case of DWRKNIEEKSEMEGRKKMFESES [G11E] it was 3.21. As to DWRKNIEEKSNMEGRKKMFESES [G11N], the protein stability index turned out to be 1.94. DWRKNIEEKSKMEGRKKMFESES [G11K]: the protein stability index came out at 3.5.

For the variant DWRKNIEEKSMMEGRKKMFESES [G11M], the protein stability index stood at 1.9. With DWRKNIEEKSCMEGRKKMFESES [G11C] the figure was 1.52; with DWRKNIEEPSGMEGRKKMFESES [K9P], 1.75; with DWRKNIEESSGMEGRKKMFESES [K9S], 3.35. In the case of DWRKNIEEYSGMEGRKKMFESES [K9Y] it was 1.93; in that of DWRKNIEEQSGMEGRKKMFESES [K9Q], 1.68; in that of DWRKNIEEHSGMEGRKKMFESES [K9H], 2.4. In the case of DWRKNIEEESGMEGRKKMFESES [K9E] it was 2.13. Consider DWRKNIEENSGMEGRKKMFESES [K9N], for which the protein stability index turned out to be 2.58. In the case of DWRKNIEEISGMEGRKKMFESES [K9I] it was 2.39; in that of DWRKNIEEFSGMEGRKKMFESES [K9F], 2.44; in that of DWRKNIEEWSGMEGRKKMFESES [K9W], 2.34. In the case of DWRKNIEEDSGMEGRKKMFESES [K9D], the protein stability index was 1.73. With DWRKNIEECSGMEGRKKMFESES [K9C] the figure was 1.84; with DWRKNIEETSGMEGRKKMFESES [K9T], 2.54; with DWRKNIEELSGMEGRKKMFESES [K9L], 2.51. With DWRKNIELKSGMEGRKKMFESES [E8L] the figure was 2.47.

With DWRKNIEPKSGMEGRKKMFESES [E8P], the protein stability index is 3.03. With DWRKNIETKSGMEGRKKMFESES [E8T] the figure was 2.17.

Consider DWRKNIENKSGMEGRKKMFESES [E8N], for which the protein stability index came to 3.61. Take DWRKNIEGKSGMEGRKKMFESES [E8G]: the protein stability index turned out to be 2.06. In the case of DWRKNIEIKSGMEGRKKMFESES [E8I] it was 2.41; in that of DWRKNIEFKSGMEGRKKMFESES [E8F], 2.06; in that of DWRKNIEAKSGMEGRKKMFESES [E8A], 2.2. For the variant DWRKNIERKSGMEGRKKMFESES [E8R], the protein stability index was 1.84. Turning to DWRKNIEMKSGMEGRKKMFESES [E8M], the protein stability index worked out at 1.5. In the case of DWRKNIEWKSGMEGRKKMFESES [E8W] it was 1.52; in that of DWRKNIEQKSGMEGRKKMFESES [E8Q], 2.17; in that of DWRKNIESKSGMEGRKKMFESES [E8S], 1.99.

Turning to DWRKNIEKKSGMEGRKKMFESES [E8K], the protein stability index turned out to be 2.74. With DWRKNIEVKSGMEGRKKMFESES [E8V] the figure was 2.66; with DWRKNIECKSGMEGRKKMFESES [E8C], 1.63; with DWRKNIEYKSGMEGRKKMFESES [E8Y], 2.16. With DWRKNIEHKSGMEGRKKMFESES [E8H] the figure was 2.09; with DNRKNIEEKSGMEGRKKMFESES [W2N], 2.25; with DPRKNIEEKSGMEGRKKMFESES [W2P], 3.59. With DMRKNIEEKSGMEGRKKMFESES [W2M] the figure was 3.08; with DSRKNIEEKSGMEGRKKMFESES [W2S], 2.69. For the variant DKRKNIEEKSGMEGRKKMFESES [W2K], the protein stability index was determined as 1.95. With DHRKNIEEKSGMEGRKKMFESES [W2H] the figure was 2.95; with DTRKNIEEKSGMEGRKKMFESES [W2T], 2.32; with DDRKNIEEKSGMEGRKKMFESES [W2D], 3.12. With DYRKNIEEKSGMEGRKKMFESES [W2Y] the figure was 2.93; with DCRKNIEEKSGMEGRKKMFESES [W2C], 2.88. As to DFRKNIEEKSGMEGRKKMFESES [W2F], the protein stability index was 2.55. With DGRKNIEEKSGMEGRKKMFESES [W2G] the figure was 2.51; with DVRKNIEEKSGMEGRKKMFESES [W2V], 2.96; with DQRKNIEEKSGMEGRKKMFESES [W2Q], 3.67. In the case of DIRKNIEEKSGMEGRKKMFESES [W2I] it was 2.53; in that of DERKNIEEKSGMEGRKKMFESES [W2E], 3.25; in that of DLRKNIEEKSGMEGRKKMFESES [W2L], 2.85. With DWYKNIEEKSGMEGRKKMFESES [R3Y] the figure was 1.64. On to DWNKNIEEKSGMEGRKKMFESES [R3N], for which the protein stability index was determined as 2.48. In the case of DWEKNIEEKSGMEGRKKMFESES [R3E] it was 2.48; in that of DWVKNIEEKSGMEGRKKMFESES [R3V], 2.08. With DWLKNIEEKSGMEGRKKMFESES [R3L] the figure was 1.74.

Consider DWQKNIEEKSGMEGRKKMFESES [R3Q], for which the protein stability index amounted to 2.84. With DWDKNIEEKSGMEGRKKMFESES [R3D], the protein stability index turned out to be 2.63. In the case of DWHKNIEEKSGMEGRKKMFESES [R3H] it was 2.88. In the case of DWAKNIEEKSGMEGRKKMFESES [R3A] it was 2.09. Take DWKKNIEEKSGMEGRKKMFESES [R3K]: the protein stability index stood at 2.34. In the case of DWGKNIEEKSGMEGRKKMFESES [R3G], the protein stability index came to 1.61.

Consider DWFKNIEEKSGMEGRKKMFESES [R3F], for which the protein stability index was 2.06. Consider DWPKNIEEKSGMEGRKKMFESES [R3P], for which the protein stability index amounted to 1.84. In the case of DWIKNIEEKSGMEGRKKMFESES [R3I] it was 2.19; in that of DWTKNIEEKSGMEGRKKMFESES [R3T], 2.48; in that of DWSKNIEEKSGMEGRKKMFESES [R3S], 2.04. Regarding DWMKNIEEKSGMEGRKKMFESES [R3M], the protein stability index came out at 3.28.

The values above are taken from the supplement of paper PMC10567573.
